Reference: patent US20020119473, “Nucleic acid ligands to the prostate specific membrane antigen” (published 2002)

B1: xPSM-A9 (ssRNA)
RNA: GGGAGGACGAUGCGGACCGAAAAAGACCUGACUUCUAUACUAAGUCUACGUUCCCAGACGACUCGCCCGA
modifications: 2'-F all pyrimidines; purines 2'-OH
B2: xPSM-A10 (62-A10) (ssRNA)
RNA: GGGAGGACGAUGCGGAUCAGCCAUGUUUACGUCACUCCUUGUCAAUCCUCAUCGGCAGACGACUCGCCCGA
modifications: 2'-F all pyrimidines; purines 2'-OH
B3: xPSM1.A10-4 (ssRNA)
RNA: GGGAGGACGAUGCGGAUCAGCCAUGUUUACGUCACUCCUUGUCAAUCCUCA
modifications: 2'-F all pyrimidines; purines 2'-OH
B4: xPSM1.A10-1 (ssRNA)
RNA: GGGAGGACGAUGCGGAUCAGCCAUGUUUACGUCACUCCUUGUCAAUCCUCAUCGGCAGACGACUCG
modifications: 2'-F all pyrimidines; purines 2'-OH
B5: xPSM1.A9-1 (ssRNA)
RNA: GGGAGGACGAUGCGGACCGAAAAAGACCUGACUUCUAUACUAAGUCUACGUUCCCAGACGACUCG
modifications: 2'-F all pyrimidines; purines 2'-OH
B6: xPSM1.A9-3 (ssRNA)
RNA: GGGAGGACGAUGCGGACCGAAAAAGACCUGACUUCUAUACUAAGUCUACGUUCCC
modifications: 2'-F all pyrimidines; purines 2'-OH
B7: xPSM1.A9-2 (ssRNA)
RNA: GGGAGGACGAUGCGGACCGAAAAAGACCUGACUUCUAUACUAAGUCUACGUUCCCAGACG
modifications: 2'-F all pyrimidines; purines 2'-OH
B8: xPSM1.A10-3 (ssRNA)
RNA: GGGAGGACGAUGCGGAUCAGCCAUGUUUACGUCACUCCUUGUCAAUCCUCAUCGGC
modifications: 2'-F all pyrimidines; purines 2'-OH

Columns and labels:
Conditions in all cases: tags: S-tag fusion released by enterokinase; baculovirus Sf-9 secreted
[1] = molecular target: T1, xPSM (extracellular portion of PSMA) (Homo sapiens (LNCaP cDNA), UniProt Q04609 Q04609:44-750); assay: inhibition; NAALADase assay, 8 nM substrate, 37 C
T1 sequence (Q04609 44-750, one chain of several): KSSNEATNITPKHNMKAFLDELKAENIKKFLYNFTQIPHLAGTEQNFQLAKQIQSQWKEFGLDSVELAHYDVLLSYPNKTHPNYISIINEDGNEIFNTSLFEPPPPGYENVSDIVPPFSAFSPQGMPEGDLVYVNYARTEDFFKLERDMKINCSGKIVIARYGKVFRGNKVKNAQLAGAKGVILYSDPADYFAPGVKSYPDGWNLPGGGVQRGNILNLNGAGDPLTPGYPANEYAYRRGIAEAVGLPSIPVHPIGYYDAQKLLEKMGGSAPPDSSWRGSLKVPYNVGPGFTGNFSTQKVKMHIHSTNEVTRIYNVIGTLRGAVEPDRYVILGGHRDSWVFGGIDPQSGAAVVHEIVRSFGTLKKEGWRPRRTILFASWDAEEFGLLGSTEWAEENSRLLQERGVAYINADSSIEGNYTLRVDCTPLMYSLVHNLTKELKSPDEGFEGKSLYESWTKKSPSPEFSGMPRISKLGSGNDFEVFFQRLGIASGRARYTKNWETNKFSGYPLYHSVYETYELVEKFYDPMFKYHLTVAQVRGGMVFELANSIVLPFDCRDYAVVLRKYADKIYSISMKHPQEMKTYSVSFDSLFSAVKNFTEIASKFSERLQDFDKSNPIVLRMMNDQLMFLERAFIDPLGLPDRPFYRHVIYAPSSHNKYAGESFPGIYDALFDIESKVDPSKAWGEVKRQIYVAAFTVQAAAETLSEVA
Protocol: (§1) NAAG hydrolysis was performed essentially as described in Robinson et al. (1987) J Biol Chem. 262:14498-506. LNCaP cell extracts were prepared by sonication in the presence of 50 mM Tris, pH 7.4, 0.5% Triton-X-100. Cell lysate or purified xPSM was incubated in the presence of the radiolabeled substrate N-acetyl-L-aspartyl-L-[3,4-³H]glutamate (NEN Life Science Products, Boston, Mass.) at 37° C. for 10-15 minutes. The reaction was stopped with an equal volume of ice-cold 100 mM sodium phosphate, 2 mM EDTA. Products were separated from intact substrate using anion exchange chromatography and quantitated by scintillation counting. […] In all cases less than 20% of substrate was cleaved.

[2] = molecular target: T1, xPSM (extracellular portion of PSMA); assay: inhibition; noncompetitive NAALADase inhibition, 37 C
Protocol: as §1

[3] = molecular target: T1, xPSM (extracellular portion of PSMA); assay: inhibition; competitive NAALADase inhibition, 37 C
Protocol: as §1

[4] = molecular target: T1, xPSM (extracellular portion of PSMA); assay: inhibition; competitive NAALADase inhibition, +/-7.8 nM, 37 C
Protocol: as §1

Binder	IC50 [1]	further results
B1	5 nM	Ki [2]: 1.1 nM
B2	80 nM	Ki [3]: 11.9 nM
B3	> 700 nM	
GGGAGGACGAUGCGGAUCAGCCAUGUUUACGUCACUCCUUGUCAAU (ssRNA, 2'-F all pyrimidines; purines 2'-OH) [xPSM1.A10-5]	> 700 nM	
B4	40 nM	
GGGAGGACGAUGCGGACCGAAAAAGACCUGACUUCUAUACUAAGU (ssRNA, 2'-F all pyrimidines; purines 2'-OH) [xPSM1.A9-5]	> 300 nM	
GGGAGGACGAUGCGGACCGAAAAAGACCUGACUUCUAUAC (ssRNA, 2'-F all pyrimidines; purines 2'-OH) [xPSM1.A9-6]	> 300 nM	
B5	8 nM	
B6	> 300 nM	
B7	300 nM	
GGGAGGACGAUGCGGAUCAGCCAUGUUUACGUCACUCCUUG (ssRNA, 2'-F all pyrimidines; purines 2'-OH) [xPSM1.A10-6]	> 700 nM	
B8	50 nM	Ki [4]: 20.5 nM
GGGAGGACGAUGCGGACCGAAAAAGACCUGACUUCUAUACUAAGUCUACG (ssRNA, 2'-F all pyrimidines; purines 2'-OH) [xPSM1.A9-4]	> 300 nM	
